# Measured values published in publication PMC3042207 (British Journal of Pharmacology, 2011).
# Positions count from the first letter of the chain named. Names may count otherwise. “And” between values parts separate entries of the source, which are not always exact repeats. Equal entries are not always repeated. Where two headings read alike, the source gives them in different places.
# B1: CYP3A5 (Homo sapiens) (protein)
# chain: MDLIPNLAVETWLLLAVSLVLLYLYGTRTHGLFKRLGIPGPTPLPLLGNVLSYRQGLWKFDTECYKKYGKMWGTYEGQLPVLAITDPDVIRTVLVKECYSVFTNRRSLGPVGFMKSAISLAEDEEWKRIRSLLSPTFTSGKLKEMFPIIAQYGDVLVRNLRREAEKGKPVTLKDIFGAYSMDVITGTSFGVNIDSLNNPQDPFVESTKKFLKFGFLDPLFLSIILFPFLTPVFEALNVSLFPKDTINFLSKSVNRMKKSRLNDKQKHRLDFLQLMIDSQNSKETESHKALSDLELAAQSIIFIFAGYETTSSVLSFTLYELATHPDVQQKLQKEIDAVLPNKAPPTYDAVVQMEYLDMVVNETLRLFPVAIRLERTCKKDVEINGVFIPKGSMVVIPTYALHHDPKYWTEPEEFRPERFSKKKDSIDPYIYTPFGTGPRNCIGMRFALMNMKLALIRVLQNFSFKPCKETQIPLKLDTQGLLQPEKPIVLKVDSRDGTLSGE
# B2: UGT 1A1 (Homo sapiens) (protein)
# chain: HAGKILLIPVDGSHWLSMLGAIQQLQQRGHEIVVLAPDASLYIRDGAFYTLKTYPVPFQREDVKESFVSLGHNVFENDSFLQRVIKTYKKIKKDSAMLLSGCSHLLHNKELMASLAESSFDVMLTDPFLPCSPIVAQYLSLPTVFFLHALPCSLEFEATQCPNPFSYVPRPLSSHSDHMTFLQRVKNMLIAFSQNFLCDVVYSPYATLASEFLQREVTVQDLLSSASVWLFRSDFVKDYPRPIMPNMVFVGGINCLHQNPLSQEFEAYINASGEHGIVVFSLGSMVSEIPEKKAMAIADALGKIPQTVLWRYTGTRPSNLANNTILVKWLPQNDLLGHPMTRAFITHAGSHGVYESICNGVPMVMMPLFGDQMDNAKRMETKGAGVTLNVLEMTSEDLENALKAVINDKSYKENIMRLSSLHKDRPVEPLDLAVFWVEFVMRHKGAPHLRPAAHDLTWYQYHSLDVIGFLLAVVLTVAFITFKCCAYGYRKCLGKKGRVKKAHKSKTH
# B3: CYP2C8 (Homo sapiens) (protein)
# chain: MEPFVVLVLCLSFMLLFSLWRQSCRRRKLPPGPTPLPIIGNMLQIDVKDICKSFTNFSKVYGPVFTVYFGMNPIVVFHGYEAVKEALIDNGEEFSGRGNSPISQRITKGLGIISSNGKRWKEIRRFSLTTLRNFGMGKRSIEDRVQEEAHCLVEELRKTKASPCDPTFILGCAPCNVICSVVFQKRFDYKDQNFLTLMKRFNENFRILNSPWIQVCNNFPLLIDCFPGTHNKVLKNVALTRSYIREKVKEHQASLDVNNPRDFIDCFLIKMEQEKDNQKSEFNIENLVGTVADLFVAGTETTSTTLRYGLLLLLKHPEVTAKVQEEIDHVIGRHRSPCMQDRSHMPYTDAVVHEIQRYSDLVPTGVPHAVTTDTKFRNYLIPKGTTIMALLTSVLHDDKEFPNPNIFDPGHFLDKNGNFKKSDYFMPFSAGKRICAGEGLARMELFLFLTTILQNFNLKSVDDLKNLNTTAVTKGIVSLPPSYQICFIPV
# B4: CYP2C8*3 (Homo sapiens; K399R/R139K) (protein)
# chain: B3 chain with R139K, K399R
# B5: UGT 1A3 (Homo sapiens) (protein)
# chain: GKVLVVPIDGSHWLSMREVLRELHARGHQAVVLTPEVNMHIKEENFFTLTTYAISWTQDEFDRHVLGHTQLYFETEHFLKKFFRSMAMLNNMSLVYHRSCVELLHNEALIRHLNATSFDVVLTDPVNLCAAVLAKYLSIPTVFFLRNIPCDLDFKGTQCPNPSSYIPRLLTTNSDHMTFMQRVKNMLYPLALSYICHAFSAPYASLASELFQREVSVVDILSHASVWLFRGDFVMDYPRPIMPNMVFIGGINCANRKPLSQEFEAYINASGEHGIVVFSLGSMVSEIPEKKAMAIADALGKIPQTVLWRYTGTRPSNLANNTILVKWLPQNDLLGHPMTRAFITHAGSHGVYESICNGVPMVMMPLFGDQMDNAKRMETKGAGVTLNVLEMTSEDLENALKAVINDKSYKENIMRLSSLHKDRPVEPLDLAVFWVEFVMRHKGAPHLRPAAHDLTWYQYHSLDVIGFLLAVVLTVAFITFKCCAYGYRKCLGKKGRVKKAHKSKTH
# B6: UGT 1A6 (Homo sapiens) (protein)
# chain: DKLLVVPQDGSHWLSMKDIVEVLSDRGHEIVVVVPEVNLLLKESKYYTRKIYPVPYDQEELKNRYQSFGNNHFAERSFLTAPQTEYRNNMIVIGLYFINCQSLLQDRDTLNFFKESKFDALFTDPALPCGVILAEYLGLPSVYLFRGFPCSLEHTFSRSPDPVSYIPRCYTKFSDHMTFSQRVANFLVNLLEPYLFYCLFSKYEELASAVLKRDVDIITLYQKVSVWLLRYDFVLEYPRPVMPNMVFIGGINCKKRKDLSQEFEAYINASGEHGIVVFSLGSMVSEIPEKKAMAIADALGKIPQTVLWRYTGTRPSNLANNTILVKWLPQNDLLGHPMTRAFITHAGSHGVYESICNGVPMVMMPLFGDQMDNAKRMETKGAGVTLNVLEMTSEDLENALKAVINDKSYKENIMRLSSLHKDRPVEPLDLAVFWVEFVMRHKGAPHLRPAAHDLTWYQYHSLDVIGFLLAVVLTVAFITFKCCAYGYRKCLGKKGRVKKAHKSKTH
# Legend:
# CYP2C8 = details: ref Ong et al., 2000; cited from earlier work
# [1] = test system: human liver microsomes (HLM); assay: CYP inhibition: 4-HPR metabolite formation in HLM with CYP inhibitors; type: in vitro ADME; details: HLM + 4-HPR; inhibitor alone at 100 µM
# [2] = substrate: CC1=C(/C=C/C(C)=C/C=C/C(C)=C/C(=O)Nc2ccc(O)cc2)C(C)(C)CCC1; assay: Metabolism of 4-HPR by CYP3A5 supersomes; type: in vitro ADME, human; details: other: CYP3A5 supersomes; 4-HPR 0-20 µM, 3 h; 37.0 °C
# [3] = substrate: CC1=C(/C=C/C(C)=C/C=C/C(C)=C/C(=O)Nc2ccc(O)cc2)C(C)(C)CCC1; assay: Glucuronidation of 4-HPR by UGT 1A1 supersomes; type: in vitro ADME, human; details: other: UGT 1A1, 1 mg·mL^−1; 4-HPR 0-2000 µM, 3 h; 37.0 °C
# [4] = substrate: CC1=C(/C=C/C(C)=C/C=C/C(C)=C/C(=O)Nc2ccc(O)cc2)C(C)(C)CCC1; assay: Metabolism of 4-HPR by CYP2C8 supersomes; type: in vitro ADME, human; details: other: CYP2C8 supersomes; 4-HPR 0-20 µM, 3 h; 37.0 °C
# [5] = substrate: CC1=C(/C=C/C(C)=C/C=C/C(C)=C/C(=O)Nc2ccc(O)cc2)C(C)(C)CCC1; type: in vitro ADME, human; details: other: CYP2C8*3, E. coli membranes; 4-HPR 0-20 µM, 3 h; pH 5.0
# [6] = substrate: CC1=C(/C=C/C(C)=C/C=C/C(C)=C/C(=O)Nc2ccc(O)cc2)C(C)(C)CCC1; assay: Glucuronidation of 4-HPR by UGT 1A3 supersomes; type: in vitro ADME, human; details: other: UGT 1A3, 1 mg·mL^−1; 4-HPR 0-2000 µM, 3 h; 37.0 °C
# [7] = substrate: CC1=C(/C=C/C(C)=C/C=C/C(C)=C/C(=O)Nc2ccc(O)cc2)C(C)(C)CCC1; assay: Glucuronidation of 4-HPR by UGT 1A6 supersomes; type: in vitro ADME, human; details: other: UGT 1A6, 1 mg·mL^−1; 4-HPR 0-2000 µM, 3 h; 37.0 °C
molecule,measurement,setting,value
"CC(=O)N1CCN(c2ccc(OCC3COC(Cn4ccnc4)(c4ccc(Cl)cc4Cl)O3)cc2)CC1 (centres unmarked) [Ketoconazole, ketoconazole]",concentrations at which CYP2C8 is markedly inhibited,CYP2C8,> 10 µM
"COc1ccc2[nH]c([S+]([O-])Cc3ncc(C)c(OC)c3C)nc2c1 (centres unmarked) [Omeprazole, omeprazole]","effect on production of 4′-OH 4-HPR and 4′-oxo 4-HPR, inhibitor alone",[1],very little effect
B1,Km,[2],19.1 ± 5.0 µM
B2,Km,[3],716 ± 87 µM
B3,Km,[4],5.0 ± 3.1 µM and 2.2 ± 1.1 µM
B4,Km,[5],18.8 ± 8.3 µM and 8.6 ± 2.5 µM
B5,Km,[6],389 ± 53 µM
B6,Km,[7],422 ± 46 µM
